Assay results as given in patent US20210340238A1, “TGFß1 INHIBITORS AND USE THEREOF” (Scholar Rock, Inc., priority 2018, published 2021).
Entries after “also recorded” stand apart in the source; their conditions may differ.

How the values were obtained:
[1] = test system: liver fibrosis (pSmad2/3, hydroxyproline, type I collagen); details: CDHFD mice, weeks 4-12
Description: The Choline deficient high fat diet (CDHFD) is an established dietary model of Non-Alcoholic steatohepatitis (NASH). In this model, male C57BL/6J mice are fed a choline deficient, 0.1% Methionine, high fat diet for 12 weeks. Three to six weeks after the start of the CDHFD, expression of α-sma protein (a marker for activation of hepatic stellate cells) increases and the development of hepatic fibrosis is accompanied by an increase in the hydroxyproline content accompanied by a rise in intrahepatic collagen synthesis and deposition (Matsumoto et. al, Int J Exp Pathol. 2013 April; 94(2):93-103).
Animals in the test cohorts were on the CDHFD for the duration of the study. A separate cohort of mice were administered a regular chow diet as a study control. […] Antibody test concentrations were as follows: 15 mg/kg, 5 mg/kg or 1.5 mg/kg twice a week (i.e., 30, 10, or 3 mg/kg/week) for a test duration of 8 weeks (i.e., weeks 4 thru 12). An IgG isotype antibody was used as a negative control at 15 mg/kg twice weekly (30 mg/kg/week). Following 8 weeks of dosing, animals were sacrificed and livers collected for analyses.
Serum measurements were also taken to determine the extent of antibody exposure during the study.
TGFβ1 receptor engagement leads to intracellular signaling events including the phosphorylation of Smad2 and Smad3.
Hydroxyproline is a signature amino acid for fibrillar collagens and comprises approximately 13.5% of the protein. […] Hydroxyproline acts as an important diagnostic indicator of the severity of fibrosis.
To assess the levels of type 1 collagen deposition in livers from CDHFD-treated mice, immunohistochemistry (IHC) protocols were developed for anti-mouse type I collagen antibody (rabbit polyclonal; Abcam; ab21286) using the Leica Bond RX staining system. Mouse liver was collected and fixed in 10% neutral buffered formalin (NBF) for 24 hours at room temperature. Fixed livers were then trimmed into 3-5 mm cross sections and stored in 70% ethanol until processed for paraffin infiltration and embedding. Paraffin embedded livers were sectioned at 4 μm and mounted on slides for IHC staining. Type 1 collagen primary antibody was used at a 5 μg/mL final concentration along with a matched isotype primary control (rabbit monoclonal IgG; Cell Signaling Technologies; 3900S). Epitope retrieval was performed with a pH 6 citrate buffer incubated at 100° C. for 20 minutes. […]
Stained slides were sent to HistoTox Labs for imaging with an Aperio AT2 whole slide scanner and collagen staining was analyzed using Visiopharm image analysis software. […] Total collagen positive area was measured using an intensity-based thresholding algorithm which classified each pixel of the image as high positive, medium positive, low positive, or negative staining area.

[2] = 4-week rat toxicology study (weekly dosing); assay type: in vivo
Excerpt: Animals were sacrificed and necropsies performed.

[3] = test system: fibrosis-associated genes (Col1a1, Col3a1, Fn1, Lox, Lox/2, Acta2, Mmp2, Itga11); assay: Unilateral ureteral obstruction (UUO) model of acute kidney fibrosis, qPCR of fibrosis-associated genes; assay type: in vivo, mouse; details: i.p. days −1 and 4, kidney qPCR day 5
Description: Inhibition of acute fibrosis by anti-TGFβ1 antibodies was tested in the unilateral ureteral obstruction (UUO) model of acute kidney fibrosis. In this model, fibrosis is induced in male mice by permanent surgical ligation of the left ureter on study day 0.
Kidneys were collected at the end of study, on day 5 after surgery, and RNA was harvested from these tissues. The degree of fibrosis induction was subsequently assessed by quantitative polymerase chain reaction (qPCR) for a panel of fibrosis-associated genes, including Collagen I (Col1a1), Collagen III (Col3a1), Fibronectin 1 (Fn1), Lysyl Oxidase (Lox), Lysyl Oxidase-like 2 (Lox/2), Smooth muscle actin (Acta2), Matrix metalloprotease (Mmp2), and Integrin alpha 11 (Itga11) (Rolfe, Irvine, Grobbelaar, & Linge, 2007) (Tamaki et al., 1994) (Bansal et al., 2017)(Leaf& Duffield, 2016).

Cell-associated proTGFβ1 = assay: Octet binding, cell average of hGARP and hLRRC33 complexes; parameters: species or system human; details: average KD of (E) and (F), read-out: (G) Cell AVRG
Excerpt: Column (A) of the table provides monoclonal antibodies with discrete amino acid sequences. […] Columns (B), (C), (E) and (F) provide affinities of each of the listed antibodies, measured in KD, towards the antigen complex as indicated, respectively. […] Average KD values calculated from (B) and (C) are shown in the corresponding column (D), which collectively represents affinities of the antibodies to ECM- or matrix-associated proTGFβ1 complexes. Similarly, Average KD values calculated from (E) and (F) are shown in the corresponding column (G), which collectively represents affinities of the antibodies to cell-surface or cell-associated proTGF complexes. Finally, relative ratios between the average KD values from columns (D) and (G) are expressed as fold bias” in column (H). Thus, the greater the numerical of column (H) is, the greater bias exists for the particular antibody, when comparing binding preferences of the antibody for matrix-associated complexes to cell-surface complexes. This is one way of quantitatively representing and comparing inherent bias of antibodies to their target complexes. Such analyses may be useful in guiding the selection process for a candidate antibody for particular therapeutic use.

MBT2 tumors = assay: MBT2 syngeneic bladder cancer mouse model, combination with anti-PD-1; assay type: in vivo; details: Ab3 10 and 30 mg/kg, Ab2 3 and 10 mg/kg, in combination with anti-PD-1
Excerpt: This is a very aggressive and fast-growing tumor model, and is very difficult to overcome tumor progression with drug treatment.
Treatment with isotype control was used as a control group (data not shown).
Percent tumor growth delay (% TGD) is defined as the increase in the median time to endpoint in a treatment group compared to the untreated control, expressed as a percentage of the median time to endpoint (TTE) of the control:
T=median TTE for treatment

human proTGFβ1 C4S/R249A = biological target: T1, human proTGFβ1 C4S/R249A (Homo sapiens, UniProt P01137, C33S/R278A); assay: X-ray crystallography of proTGFβ1:Ab2-Fab:AbX-Fab ternary complex; assay type: binding; details: numbering after removal of signal sequence
T1 construct: made in house; host or cells: expi293 (kifunensine-treated), co-expressed with Ab2-Fab
Excerpt: In this work, an uncleavable human proTGFβ1 C4S/R249A variant was used that spans residues 30-390 based on the full-length sequence of human proTGFβ1 (Uniprot ID P01137). The numbering system that will be used for the rest of this document will designate position 1 as the first amino acid residue after the removal of the signal sequence for proTGFβ isoforms. The C4S mutation renders proTGFβ1 not capable of covalent crosslinking to any known presenting molecules, e.g. LTBPs and GARP, while the R249A renders proTGFβ1 resistant to proprotein convertase/furin protease cleavage, thus maintaining proTGFβ1 in its uncleaved, proprotein form. ProTGFβ1 C4S/R249A was co-expressed with C-terminally 6×-His tagged Ab2-Fab in kifunensine-treated expi293 mammalian expression system to reduce N-linked glycosylation events. The proTGFβ1 C4S/R249A:Ab2-Fab was affinity purified, treated with endoglycosidase H and purified by gel filtration. The proTGFβ1 C4S/R249A:Ab2-Fab complex was then incubated with AbX-Fab to generate the ternary complex. The AbX Fab in this context was used as an auxiliary protein, which acts as a crystallization chaperone to increase the probability of obtaining protein crystals.
Crystallization experiments were performed at room temperature in a sitting drop format. […]

T1 sequence (P01137 30-390 C33S/R278A): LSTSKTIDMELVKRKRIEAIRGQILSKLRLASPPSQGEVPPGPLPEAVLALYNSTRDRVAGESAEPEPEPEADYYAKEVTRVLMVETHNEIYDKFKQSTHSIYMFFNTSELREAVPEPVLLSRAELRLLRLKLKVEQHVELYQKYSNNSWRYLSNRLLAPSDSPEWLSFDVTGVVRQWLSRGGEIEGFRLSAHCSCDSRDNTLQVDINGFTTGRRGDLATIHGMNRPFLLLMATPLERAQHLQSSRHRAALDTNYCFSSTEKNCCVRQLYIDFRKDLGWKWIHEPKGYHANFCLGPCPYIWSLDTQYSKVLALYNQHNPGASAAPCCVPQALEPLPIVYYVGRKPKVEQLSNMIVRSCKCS

B1: Ab2: isoform-selective inhibitor of TGFβ1 activation; VH SEQ ID NO: 13, VL SEQ ID NO: 15; human IgG4 (antibody, V domains shown)
VH: EVQLLESGGGLVQPGGSLRLSCAASGFTFADYAMTWVRQAPGKGLEWVSAISGSGAATYFADSVKGRFTISRDNSKNTLYLQMNSLRAEDTAVYYCARVSSGHWDFDYWGQGTLVTVSS
VL: DIQLTQSPSSLSASVGDRVTITCRASQSISSYLNWYQQKPGKAPKLLIYAASNLQSGVPSRFSGSGSGTDFTLTISSLQPEDFATYYCQQTYTVPLTFGGGTKVEIK
modifications: human IgG4 constant regions
In the case of B1, the “Relative ratio of phosphorylated Smad2/3 in liver lysates (ELISA)” value ([1]; 15, 5 or 1.5 mg/kg i.p. twice a week) is reported as “significantly reduced the relative ratio of phosphorylated Smad2/3 compared to IgG control; also recorded: inverse correlation between serum levels of Ab2 and phosphorylated Smad2/3; also recorded: significantly reduces phosphorylation of Smad2/3 as compared to Ab3 and IgG treated mice on CDHFD”, the “Liver fibrosis as measured by hydroxyproline levels” value ([1]; i.p. twice a week, vs IgG control) is reported as “marked reduction in collagen deposition” and the Test article-related toxicity ([2]; once weekly for 4 weeks up to 100 mg/kg, Fischer 344 or SD rats) is reported as “free of observable toxicities associated with pan-inhibition of TGFβ; also recorded: no observable test article-related toxcity in either rat strain; also recorded: no toxic effects over background”. For the same molecule, the MTD ([2]; rats, suggested from NOAEL of four-week toxicology study) was over 100 mg/kg, the NOAEL ([2]; rats, weekly dose for 4 weeks, highest dose tested) was 100 mg/kg and the “Fibrosis-associated gene expression in UUO kidney vs UUO+IgG” value ([3]; 3 mg/kg/wk) was “trend towards reduced Col3a1 expression, though this effect does not reach statistical significance; also recorded: reduction of both Fn1 and, particularly, Lox/2 (P=0.06), though suppression of neither gene is statistically significant; also recorded: Col1a1 and Lox expression were also reduced”. For the same molecule, the “Fibrosis-associated gene expression in UUO kidney vs UUO+IgG” value ([3]; 10 mg/kg/wk) was “suppressed fibrotic gene induction by UUO; also recorded: highly significant (P<0.005 vs UUO+IgG) inhibition of both Fn1 and Lox/2; also recorded: all genes examined except Mmp2 showed a statistically significant change in expression”, the Kd (Cell-associated proTGFβ1) was 0.643 nM and the “Tumor growth compared to PD-1 alone” value (MBT2 tumors) was “delayed tumor growth”. The “Epitope on proTGFβ1 from crystal structure” value (human proTGFβ1 C4S/R249A) was “linear epitope formed by residues 35-43”.
